We go through two molecules from publication PMC8864705 (Chemical Science, 2022).

Experiment [1] has as its target T1, 4.1G-CTD triple mutation I958D/V959D/I960D (human, UniProt O43491 939-1005, I958D | V959D | I960D).
T1 sequence (looked up): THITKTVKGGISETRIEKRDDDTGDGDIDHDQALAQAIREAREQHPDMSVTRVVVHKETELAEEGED
Nature of the experiment: ITC.

Experiment [2] has as its target T2, C-terminal domain of protein 4.1G (4.1G-CTD, aa 939–1005) (human, UniProt O43491 939-1005).
T2 sequence (looked up): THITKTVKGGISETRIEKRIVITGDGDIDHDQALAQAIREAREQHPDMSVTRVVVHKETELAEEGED
Nature of the experiment: ITC.

Broadly, the Kd is the free concentration of one partner at which half of the binding sites on the other are occupied at equilibrium, for simple one-to-one binding. The low end stands for tighter binding, the high end for weaker binding. SGRKTRSARRRTTQIINITMTKKLDV (domain or fragment, human, UniProt Q14980 1800-1825, looked up) [NuMA 1800–1825 (26-residue motif at the C-terminal region of nuclear mitotic apparatus protein)] displayed a Kd in experiment [1] of 333 ± 73 µM.

For SGRKTRSARRRTTQIINITMTKKLAV (domain or fragment, human, UniProt Q14980 1800-1825, looked up) [NuMA 1800–1825 mutant D1824A], in experiment [2], the binding result was “binds”.
